From article PMC9352689 (Nature Communications, 2022)

Key:
[1] = target: MERS-CoV S, full-length, on the cell surface (MERS-CoV, strain , UniProt K9N5Q8); test: flow cytometry on cells; details: one partner purified
[2] = target: bat CoV SHC014 S, full-length, on the cell surface (Bat SARS-like coronavirus RsSHC014, UniProt U5WLK5); test: flow cytometry on cells; details: one partner purified
[3] = target: HCoV-NL63 S, full-length, on the cell surface (HCoV-NL63, strain , UniProt Q6Q1S2); test: flow cytometry on cells; details: one partner purified
[4] = target: HCoV-OC43 S, full-length, on the cell surface (HCoV-OC43, strain , UniProt P36334); test: flow cytometry on cells; details: one partner purified
[5] = target: T1, SARS-CoV-2 S, full-length wild type, expressed on the cell surface (SARS-CoV-2, labelled B.1 in Fig. S6A, UniProt P0DTC2); test: flow cytometry on cells; details: one partner purified
T1 construct: source: HEK293T, transfected, on the cell surface

[6] = target: SARS-CoV S, full-length, on the cell surface (SARS-CoV, strain , UniProt P59594); test: flow cytometry on cells; details: one partner purified
[7] = target: HCoV-HKU1 S, full-length, on the cell surface (HCoV-HKU1, isolate  (entry: …, UniProt Q5MQD0)); test: flow cytometry on cells; details: one partner purified
[8] = target: HCoV-229E S, full-length, on the cell surface (HCoV-229E, strain , UniProt P15423); test: flow cytometry on cells; details: one partner purified
[9] = target: SARS-CoV-2 soluble S2, his-tagged (SARS-CoV-2, ancestral (Wuhan-Hu-1), UniProt P0DTC2); test: ELISA; COVA MAbs on SARS-CoV-2 S and on soluble S2 (Fig. S5A); format not told; details: both partners purified

| Binder | binding result [1] | binding result [2] | binding result [3] | binding result [4] | binding result [5] | binding result [6] | binding result [7] | binding result [8] | binding result [9] |
| --- | --- | --- | --- | --- | --- | --- | --- | --- | --- |
| COVA1-07 (antibody, V domains shown, copies: 2 + 2) VH: QVQLVESGAEVKKPGSSVKVSCKASGGTLSSYAITWVRQAPGQGLEWVGGIIPIFGTANYAQKFQGRVTITADESTSTAYMELSSLRSEDTAVYYCARVGAYDSSGYSNDYWGQGTLVTVSS VL: DIQLTQSPATLSLSPGERATLSCRASQSVSSYLAWYQQKPGQAPRLLIYDASNRATGIPARFSGSGSGTDFTLTISSLEPEDFAVYYCQQRSNWPPRVTFGGGTKVEIK | no binding (tested: 50 μg/mL) | binds | no binding (tested: 50 μg/mL) | no binding (tested: 50 μg/mL) | binds | binds | no binding (tested: 50 μg/mL) | no binding (tested: 50 μg/mL) | binds |
| COVA2-18 (antibody, V domains shown, copies: 2 + 2) VH: EVQLVQSGAEVKKPGSSVKVSCKASGGTFSSYAISWVRQAPGQGLEWMGGIIPIFGTTNYAQKFQGRVTITTDESTSTAYMELSSLRSEDTAVYYCARVYSYDSSGYYLEYWGQGTRVTVSS VL: EIVLTQSPATLSLSPGERATLSCRASQSVSSYLAWYQQKPGQAPRLLIYDASNRATGIPARFSGSGSGTDFTLTISSLEPEDFAVYYCQQRSNWPPSITFGQGTRLEIK | no binding (tested: 50 μg/mL) | binds | no binding (tested: 50 μg/mL) | no binding (tested: 50 μg/mL) | binds | binds | no binding (tested: 50 μg/mL) | no binding (tested: 50 μg/mL) | binds |
| COVA2-14 (antibody, V domains shown, copies: 2 + 2) VH: QVQLVQSGAEVKKPGSSVKVSCKASGGTFSSYAIIWVRQAPGQGLEWMGGIIPIFGTANYAQKFQGRVTITTDESTSTAYMELSSLRSEDTAVYYCARVRYYDSSGYYEDYWGQGTLVTVSS VL: EIVLTQSPATLSLSPGERATLSCRASQSVSSYLAWYQQEPGQAPRLLIYDASNRATGIPARFSGSGSGTDFTLTISSLEPEDFAVYYCQQRSNWPPMYTFGQGTKVEIK | no binding (tested: 50 μg/mL) | binds | no binding (tested: 50 μg/mL) | no binding (tested: 50 μg/mL) | binds | binds | no binding (tested: 50 μg/mL) | no binding (tested: 50 μg/mL) | binds |
